These results are taken from publication PMC10395824 (PLOS Pathogens, 2023).

The target in the experiment is SARS-CoV-2 S1 RBD2 (Wuhan RBD, S-protein amino acids 319-541) (SARS-CoV-2 Wuhan, UniProt P0DTC2). The experiment in a line: […] (150 mM NaCl, 20 mM Tris pH 7.5); […], MES pH 5.5, […]. The following applies: both partners purified.

B1: Fab ICO-hu23 (Fab, V domains shown)
VH: EVQLVQSGAEVKKPGASVKVSCKASGYTFTGYYFHWVRQAPGQGLEWMGWINPISGGTKYAQKFQGWVTMTRATSISTVYMEVSRLRSDDTAVYYCARGHTYNWNYAYCDYWGQGTLVTVSS
VL: SYVLTQPASVSGSPGQSITISCTGTSSDVGVYNYVSWYQQHPGKAPKLMIYDVSNRPSGVSNRFSGSKSGNTASLTISGLQAEDEADYYCSSYTSSSTLVFGGGTKLTVL
Take B1: the binding result is listed as “binds”.
